The values that follow are results of earlier work, collected in publication PMC4468388.

For this data set, the target named is insulin receptor (Homo sapiens) (UniProt P06213).
Chain of UniProt P06213 (P06213 763-1382): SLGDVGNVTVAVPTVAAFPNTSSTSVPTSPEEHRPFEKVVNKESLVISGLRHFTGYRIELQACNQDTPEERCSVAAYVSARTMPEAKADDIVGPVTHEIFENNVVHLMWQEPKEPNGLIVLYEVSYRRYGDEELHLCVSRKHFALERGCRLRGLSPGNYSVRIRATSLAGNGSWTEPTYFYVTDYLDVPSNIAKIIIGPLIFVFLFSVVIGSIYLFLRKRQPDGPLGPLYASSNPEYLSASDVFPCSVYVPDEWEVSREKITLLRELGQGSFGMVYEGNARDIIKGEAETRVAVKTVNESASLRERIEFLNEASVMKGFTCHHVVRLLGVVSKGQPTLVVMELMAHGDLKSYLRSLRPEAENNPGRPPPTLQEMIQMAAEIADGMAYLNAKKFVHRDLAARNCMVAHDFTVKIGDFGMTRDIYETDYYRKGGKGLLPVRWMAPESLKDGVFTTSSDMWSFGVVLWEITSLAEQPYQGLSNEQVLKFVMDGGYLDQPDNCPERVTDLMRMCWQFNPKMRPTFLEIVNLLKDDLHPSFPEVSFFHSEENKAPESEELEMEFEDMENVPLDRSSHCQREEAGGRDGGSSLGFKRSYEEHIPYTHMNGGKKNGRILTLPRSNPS

Chain of insulin (P01308 90-110): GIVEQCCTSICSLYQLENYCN

The Kd is the free concentration of one partner at which half of the binding sites on the other are occupied at equilibrium, for simple one-to-one binding. On to insulin (from UniProt P01308), for which the Kd was less than 1 nM.
